Experiment [1] concerns the target SUMO1-capped SUMO2 chain (linear dimer/trimer) (Homo sapiens, UniProt P63165). Briefly: ITC.
For experiment [2], the target named is SUMO2 chain (linear dimer/trimer) (Homo sapiens, UniProt P61956). Briefly: ITC.

Our source for the Kd values is publication PMC6695498 (2019).

Sequence of SUMO2 chain (linear dimer/trimer) (P61956 1-93): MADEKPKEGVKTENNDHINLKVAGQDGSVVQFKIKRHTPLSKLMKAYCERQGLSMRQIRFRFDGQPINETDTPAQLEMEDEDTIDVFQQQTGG
Sequence of SUMO1-capped SUMO2 chain (linear dimer/trimer) (P63165 2-97, chain 1 of 2): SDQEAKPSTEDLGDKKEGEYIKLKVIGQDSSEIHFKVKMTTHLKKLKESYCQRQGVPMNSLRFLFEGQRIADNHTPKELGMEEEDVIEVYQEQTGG
Sequence of SUMO1-capped SUMO2 chain (linear dimer/trimer) (chain, as listed by the source, chain 2 of 2): as the sequence (P61956 1-93) above

B1: Arkadia SUMO-binding domain (protein)
chain: VLARRKYALLPSSSSSSENDLSSESSSSSSTEGEEDLFVSASENHQNNPAVPSGSIDEDVVVIEASSTPQVTANEEINVTSTDSEVEIVTVGESYRSRSTLGHSRSHWSQGSSSHASRPQEPRNRSRISTVIQPLRQNAAEVVDLTVDEDEPTVVPTTSARMES
For B1, the results for the Kd in experiment [1] and in experiment [2] were ~2.5 µM and ~13.5 µM, respectively.
